{
  "source": "patent US8604172B2",
  "about": "“Humanized antibody compositions and methods for binding lysophosphatidic acid” (Lpath, Inc., priority 2009, dated 2013)",
  "key": {"[1]": {"test_system": "renal cell carcinoma (Caki-1) cells", "assay": "Cell monolayer scratch assay, Caki-1", "format": "cell-based, human", "conditions": "mAb 10 μg/ml", "experimental": "An important characteristic of metastatic cancers is that the tumor cells escape contact inhibition and migrate away from their tissue of origin. […] Accordingly, we tested the ability of anti-LPA mAb to block LPA-dependent cell migration in several human cancer cell lines by using the cell monolayer scratch assay. Cells were seeded in 96 well plates and grown to confluence. After 24 h of starvation, the center of the wells was scratched with a pipette tip. In this art-accepted “scratch assay,” the cells respond to the scratch wound in the cell monolayer in a stereotypical fashion by migrating toward the scratch and close the wound. Progression of migration and wound closure are monitored by digital photography at 10× magnification at desired timepoints. Cells were not treated (NT), treated with LPA ([…]) with or w/o mAb B7 (10 μg/ml) or an isotype matching non-specific antibody (NS) (10 μg/ml). In untreated cells, a large gap remains between the monolayer margins following the scratch. LPA-treated cells in contrast, have only a small gap remaining at the same timepoint, and a few cells are making contact across the gap."}, "[2]": {"assay": "Competition ELISA (18:1 LPA coat), competitor 18:2 LPA", "format": "binding", "conditions": "maximum inhibition", "experimental": "(§1) Many isoforms of LPA have been identified to be biologically active and it is preferable that the mAb recognize all of them to some extent to be of therapeutic relevance. The specificity of the anti-LPA mAbs was evaluated utilizing a competition assay in which the competitor lipid was added to the antibody-immobilized lipid mixture.\n(§2) Competition ELISA assays were performed with the anti-LPA mAbs to assess their specificity. 18:1 LPA was captured on ELISA plates. Each competitor lipid (up to 10 uM) was serially diluted in BSA (1 mg/ml)-PBS and then incubated with the mAbs (3 nM). Mixtures were then transferred to LPA coated wells and the amount of bound antibody was measured with a secondary antibody. Data are normalized to maximum signal (A450) and are expressed as percent inhibition. Assays were performed in triplicate. IC50: Half maximum inhibition concentration; MI: Maximum inhibition (% of binding in the absence of inhibitor); - - -: not estimated because of weak inhibition. A high inhibition result indicates recognition of the competitor lipid by the antibody."}, "Solubility": {"assay": "Solubility", "format": "physicochemical", "conditions": "6.6 mM phosphate, 154 mM sodium chloride, pH 7.4"}, "[3]": {"test_system": "microblood vessel density in matrigel plugs", "assay": "Matrigel plug assay (VEGF/bFGF), CD31 microvessel density", "format": "in vivo, C57BL/6 mice", "conditions": "for Percent Inhibition: vs control", "experimental": "Female C57BL/6 mice around 8 to 10-weeks old and Matrigel Matrix High Concentration purchased from BD BioSciences (Franklin Lakes, N.J. (from BD) mixed with 50 ng/ml VEGF and 50 ng/ml bFGF, heparin 3 ng/ml as angiogenic stimuli were used for this study. There were five groups of mice, 10 Matrigel plugs were inoculated into five mice for each group on Day 0. One mouse group served as a control; four others receive drug treatment in four different doses by ip injection every other day. All treatments start at Day-1 and finish at Day 8.\nThirty C57bl/6 mice were implanted with Matrigel plugs in order to obtain 25 healthy mice with two well-shaped Matrigel plugs per mouse. On Day 0, 500 ul Matrigel at […] was subcutaneously injected to each side of the mouse, injection area was shaved. To increase the contact area of injected Matrigel into subcutaneous tissues and form a round shape plug, a wide subcutaneous pocket was formed by swaying the needlepoint right and left after a routine subcutaneous insertion. The injection was done rapidly with an appropriate size needle (21G-25G) to ensure the entire content was delivered in one plug. The injected Matrigel rapidly formed a single solid gel plug.\nAnimals were treated with 8 or 2 mg/kg of antibody or saline beginning 1 day prior to the implantation of Matrigel plugs or with the vehicle. Treatments were administered ip, on a q2d schedule.\nPlugs from each group were collected at Day 12. The mice were euthanized and mouse skin was pulled back to expose the plug. The plugs was dissected out and fixed for histological analysis. Sections of 5 μm from paraffin-embedded plugs were stained with anti-CD-31 antibodies. Blood vessel density in a cross sectional area of each Matrigel plugs were analyzed. For each treatment group, at least six or more Matrigel plugs were quantitatively analyzed to assess any statistical significant difference of microvessel density between groups."}, "[4]": {"assay": "Competition ELISA specificity, competitor Cer", "format": "binding", "conditions": "maximum inhibition, n = 3", "experimental": "The specificity of the anti-LPA mAbs was assessed for their binding to LPA related biolipids such as distearoyl-phosphatidic acid, lysophosphatidylcholine, S1P, ceramide and ceramide-1-phosphate."}, "[5]": {"assay": "Surface plasmon resonance, 18:0 LPA on GLC sensor chip", "format": "binding", "experimental": "All binding data were collected on a ProteOn optical biosensor (BioRad, Hercules Calif.). 12:0 LPA-thiol and 18:0 LPA-thiol were coupled to a maleimide modified GLC sensor chip (Cat. No 176-5011). First, the GLC chip was activated with an equal mixture of sulfo-NHS/EDC for seven minutes followed by a 7 minute blocking step with ethyldiamine. Next sulfo-MBS (Pierce Co., cat #22312) was passed over the surfaces at a concentration of 0.5 mM in HBS running buffer (10 mM HEPES, 150 mM NaCl, 0.005% tween-20, pH 7.4). LPA-thiol was diluted into the HBS running buffer to a concentration of 10, 1 and 0.1 uM and injected for 7 minutes producing 3 different density LPA surfaces (˜100, ˜300 and ˜1400 RU). Next, binding data for the humanized antibodies was collected using a 3-fold dilution series starting with 25 nM as the highest concentration (original stocks were each diluted 1 to 100). Surfaces were regenerated with a 10 second pulse of 100 mM HCl. All data were collected at 25° C. Controls were processed using a reference surface as well as blank injections. […] In order to extract estimates of the binding constants, data from the varying antibody concentrations were globally fit using 1-site and 2-site models. This produced estimates of the affinity for the bivalent (site 1) and monovalent site (site 2)."}, "[6]": {"assay": "Direct binding ELISA of anti-LPA mAbs to 18:1 LPA", "experimental": "The binding of 6 anti-LPA mAbs (B3, B7, B58, A63, B3A6, D22) to 12:0 and 18:1 LPA (0.1 uM) was measured by ELISA. EC50 values were calculated from titration curves using 6 increasing concentrations of purified mAbs (0 to 0.4 ug/ml). EC50 represents the effective antibody concentration with 50% of the maximum binding. Max denotes the maximal binding (expressed as OD450)."}, "[7]": {"assay": "Competition ELISA (18:1 LPA coat), competitor 18:1 LPA", "format": "binding", "conditions": "maximum inhibition", "experimental": "as §1, §2"}},
  "note": "Read-outs that look alike come from different tables or passages of the source.",
  "data": [
    {"molecule": "LT3000: Murine anti-LPA monoclonal antibody clone B7, IgG1k, renamed Lpathomab, also known as LT3000; hybridoma 504B7.1, ATCC PTA-8420 (antibody, V domains shown) VH: QVQLQQSGAELVRPGTSVKVSCKASGYGFINYLIEWIKQRPGQGLEWIGLINPGSDYTNYNENFKGKATLTADKSSSTAYMHLSSLTSEDSAVYFCARRFGYYGSGNYFDYWGQGTTLTVSS VL: DVVMTQTPLSLPVSLGDQASISCTSGQSLVHINGNTYLHWYLQKPGQSPKLLIYKVSNLFSGVPDRFSGSGSGTDFTLKISRVEAEDLGVYFCSQSTHFPFTFGTGTKLEIK", "values": [
      {"measurement": "LPA-stimulated migration", "setting": "[1]", "result": "inhibitory effect"},
      {"measurement": "MI, 18:2 LPA", "setting": "[2]", "result": 100, "unit": "%"},
      {"measurement": "Solubility", "setting": "Solubility", "result": ">40 mg/mL in 6.6 mM phosphate, 154 mM sodium"},
      {"measurement": "microblood vessel density, Average", "setting": "[3]; 2 mg/kg ip q2d", "result": 34},
      {"measurement": "Percent Inhibition", "setting": "[3]; 2 mg/kg ip q2d", "result": 47.0, "unit": "%"},
      {"measurement": "microblood vessel density, Average", "setting": "[3]; 8 mg/kg ip q2d", "result": 41.5},
      {"measurement": "Percent Inhibition", "setting": "[3]; 8 mg/kg ip q2d", "result": 35.4, "unit": "%"},
      {"measurement": "MI (%), Cer", "setting": "[4]", "result": 1, "unit": "%"},
      {"measurement": "Kd", "setting": "[5]; first value (site 1, bivalent), read-out: KD (C18)", "result": 11, "unit": "pM"},
      {"measurement": "Kd", "setting": "[5]; value in parentheses (site 2, monovalent), read-out: KD (C18), value in parentheses", "result": 5, "unit": "pM"},
      {"measurement": "EC50", "setting": "[6]; 18:1 LPA 0.1 uM, mAb 0 to 0.4 ug/ml", "result": 0.274, "unit": "nM"},
      {"measurement": "Max (OD450), 18:1 LPA", "setting": "[6]; maximal binding", "result": 0.973, "unit": "OD450"},
      {"measurement": "MI, 18:1 LPA", "setting": "[7]", "result": 100, "unit": "%"}
    ]}
  ]
}
